The numbers were not newly measured in PMC8569824, which cites them from elsewhere.

In this data set the target is Amyloid beta (1-40) Aβ 1-40 (Homo sapiens) (UniProt P05067). The data set can be described thus: seed-dependent aggregation inhibition.
UniProt P05067, sequence (P05067 1-40): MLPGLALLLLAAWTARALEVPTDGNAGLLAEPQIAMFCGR

For L-PGDS (from UniProt P41222), the Ki is 750 nM.
